# Measurements taken from US20240159767A1.
# Target: PKA substrate fused to MinD (phosphorylated form) (Escherichia coli)
# Experiment: power ratio of live-cell fluorescence oscillations, saturating isoprenaline
substance,measurement,value
FHA1-mCerulean (from UniProt P22216 22-162),fold increase of the power ratio of the FHA1 signal to the MinDE carrier after a saturating dose of isoprenaline against resting cells,< 7 fold
